From article PMC9948308, “DnaK and DnaJ proteins from Hsp70/40 family are involved in Rubisco biosynthesis in Synechocystis sp. PCC6803 and sustain the enzyme assembly in a heterologous system” (BMC Plant Biology, 2023) come the findings set out here.

By Kd is commonly meant the equilibrium constant for the complex coming apart. High values mean weaker binding, low ones tighter binding.

T1: RbcL (Rubisco large subunit) from Synechocystis sp. PCC6803, unfolded, isolated from inclusion bodies (Synechocystis sp. PCC6803, UniProt P54205 1-470)
T1 chain: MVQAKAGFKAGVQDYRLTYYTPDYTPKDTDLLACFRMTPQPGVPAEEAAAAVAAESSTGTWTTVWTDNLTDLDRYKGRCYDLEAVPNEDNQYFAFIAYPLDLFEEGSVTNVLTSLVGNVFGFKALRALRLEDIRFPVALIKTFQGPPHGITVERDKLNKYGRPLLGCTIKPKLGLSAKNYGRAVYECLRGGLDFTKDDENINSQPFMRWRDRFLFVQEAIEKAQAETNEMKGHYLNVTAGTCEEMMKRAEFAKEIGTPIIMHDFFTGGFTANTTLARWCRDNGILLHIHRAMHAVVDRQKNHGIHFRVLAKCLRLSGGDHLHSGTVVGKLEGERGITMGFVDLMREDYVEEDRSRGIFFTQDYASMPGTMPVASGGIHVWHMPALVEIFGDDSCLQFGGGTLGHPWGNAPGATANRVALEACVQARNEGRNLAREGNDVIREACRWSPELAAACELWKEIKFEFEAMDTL

B1: RbcL (Rubisco large subunit) from Synechocystis sp. PCC6803, unfolded, isolated from inclusion bodies (natural protein, UniProt P54205 1-470, looked up)
chain: T1 chain
notes: Ribulose-1,5-bisphosphate carboxylase/oxygenase large subunit (RbcL), Synechocystis sp; PCC6803; used denatured/unfolded; Used as an unfolded protein diluted from GdnHCl; also called unfolded RbcL; denatured RbcL peptide; source: E. coli BL21 (DE3), purified from inclusion bodies, solubilized in 4 M GdnHCl
B2: DnaJ Sll1384 from Synechocystis sp. PCC6803, His-tagged (natural protein, UniProt P74157 1-314, looked up)
chain: MSSFPIKQGLFNYDVVDHHAILGCPLDATPEEIRKSYLKIAFQLHPDTSKATNEEEQALAAKLFSKFVNPAYEVLSRENDRKEHLLIIQQTVSNLASIGQPSFSSAESQKLQGAKQNLELVYRKVVTPLSKGLYEDFKTVFRKIAQVSEYNLIFLMVKGENASARPVFQTIASSKETVPPVVSGRSPQGPTPTPPINNPPAEELSPFEKSLRRAQENFDRRQYEKAIAELKSALKTDPKNAQAHCLLGMAYLKNNMMTMAKVHIGSAVKLDPNDPKVMAAKKELAKHTSSGSSQEGAKSSQGGFLGGLFGGKKK
modifications: RED-tris-NTA dye on the His-tag (MST only)
notes: DnaJ homolog Sll1384 (J domain plus C-terminal TPR domain), Synechocystis sp; PCC6803; gene amplified from total DNA with primers Fwsll1384 (NdeI-ATG) and Rvsll1384 (stop codon), cloned into pET16b; also called DnaJ Sll384; source: E. coli Lemo21, purified (Ni-NTA HisTrap, dialysis); not shown: His-tag, N-terminal, kept

The target of test [1] is T2, DnaK2 together with DnaJ Sll1384 (both tested chaperones, with ATP) in the MST titration (Synechocystis sp. PCC6803, UniProt P22358 1-636; P74157 1-314).
T2 construct: DnaK2, Synechocystis sp; PCC6803, as the chain of m3; DnaJ Sll1384, Synechocystis sp; PCC6803, as the chain of m2; also called DnaK + DnaJ; source: E. coli Lemo21, each purified (Ni-NTA; DnaK2 also Superdex 200), mixed
T2 sequence (P22358 whole entry, one chain of several): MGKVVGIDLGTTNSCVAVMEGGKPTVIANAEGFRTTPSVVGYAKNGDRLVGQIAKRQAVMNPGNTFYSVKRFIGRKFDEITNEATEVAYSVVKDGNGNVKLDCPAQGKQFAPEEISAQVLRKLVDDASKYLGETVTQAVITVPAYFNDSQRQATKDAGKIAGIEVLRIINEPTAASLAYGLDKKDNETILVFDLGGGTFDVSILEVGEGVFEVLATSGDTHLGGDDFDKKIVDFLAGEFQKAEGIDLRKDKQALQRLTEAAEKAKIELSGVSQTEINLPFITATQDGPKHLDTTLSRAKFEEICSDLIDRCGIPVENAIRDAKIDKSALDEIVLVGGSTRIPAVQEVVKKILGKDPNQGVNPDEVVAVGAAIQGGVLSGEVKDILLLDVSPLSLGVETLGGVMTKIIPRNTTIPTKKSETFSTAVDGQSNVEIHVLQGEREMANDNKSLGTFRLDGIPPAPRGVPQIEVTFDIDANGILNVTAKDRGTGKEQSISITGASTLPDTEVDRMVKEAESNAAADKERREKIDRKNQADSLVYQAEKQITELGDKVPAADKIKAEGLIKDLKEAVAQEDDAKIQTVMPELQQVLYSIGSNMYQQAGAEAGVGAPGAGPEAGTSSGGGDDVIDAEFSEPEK
Nature of the test: MST; His-tagged chaperone labelled with RED-tris-NTA (4 µM or 200 nM) and unfolded RbcL in PBS-T (0.1% Tween 20), with ATP; Monolith NT.115 pico; 1:1 binding model. To be noted: both partners purified.

The target in test [2] is T3, DnaK2 from Synechocystis sp. PCC6803, His-tagged (Synechocystis sp. PCC6803, UniProt P22358 1-636, RED-tris-NTA dye on the His-tag (MST only)).
T3 construct: Hsp70 chaperone DnaK2, Synechocystis sp; PCC6803; gene amplified from total DNA with primers Fwdnak2 (NdeI-ATG) and Rvdnak2 (stop codon), cloned into pET16b; source: E. coli Lemo21, purified (Ni-NTA HisTrap, Superdex 200); not shown: His-tag, N-terminal, kept
T3 sequence (P22358 whole entry): as the sequence (P22358 whole entry, one chain of several) above
Described as above. The conditions noted are these: both partners purified.

In test [3] the target is T1, RbcL (Rubisco large subunit) from …. Nature of the test: MST; with ATP.
In test [4] the target is B1. Nature of the test: MST; His-tagged chaperone labelled with RED-tris-NTA (4 µM or 200 nM) and unfolded RbcL in PBS-T (0.1% Tween 20), with ATP; Monolith NT.115 pico; 1:1 binding model. The conditions noted are these: both partners purified.

For B1, the Kd in test [1] came out at 31.1 ± 1.17 nM; in test [2], 6050 ± 3410 nM.
With B2, the dissociation constant Kd was 1.36 nM in test [3] and 1360 ± 2760 nM in test [4].
